The experiment addresses Homo sapiens ubiquitin (human, UniProt P0CG48 1-76). Kind of experiment: SPR.

For one molecule, Kd results are on record in paper doi:10.1101/2023.07.25.550441 (bioRxiv, 2023).

B1: S. cerevisiae UEV (domain or fragment)
chain: AVVNWLFKVIQPIYNDGRTTFHDSLALLDNFHSLRPRTRVFTHSDGTPQLLLSIYGTISTGEDGSSPHSIPVIMWVPSMYPVKPPFISINLENFDMNTISSSLPIQEYIDSNGWIALPILHCWDPAAMNLIMVVQELMSLLHEPPQDQAP
In turn, B1 returned a dissociation constant (Kd) of 37.9 mM.
